Assays:
Test in all cases: cell-based or functional assay
[1] = biological target: human glucagon receptor (Glucagon-R) (human, UniProt P47871 26-477)
[2] = biological target: human glucagon-like peptide 1 receptor (GLP-1R) (human, UniProt P43220 24-463)
[3] = biological target: endogenous glucagon receptor of primary rat hepatocytes (rat, UniProt P30082 27-485)
[4] = biological target: T1, endogenous GLP-1 receptor of a murine insulinoma cell line (murine, UniProt O35659 22-463)
T1 sequence (looked up): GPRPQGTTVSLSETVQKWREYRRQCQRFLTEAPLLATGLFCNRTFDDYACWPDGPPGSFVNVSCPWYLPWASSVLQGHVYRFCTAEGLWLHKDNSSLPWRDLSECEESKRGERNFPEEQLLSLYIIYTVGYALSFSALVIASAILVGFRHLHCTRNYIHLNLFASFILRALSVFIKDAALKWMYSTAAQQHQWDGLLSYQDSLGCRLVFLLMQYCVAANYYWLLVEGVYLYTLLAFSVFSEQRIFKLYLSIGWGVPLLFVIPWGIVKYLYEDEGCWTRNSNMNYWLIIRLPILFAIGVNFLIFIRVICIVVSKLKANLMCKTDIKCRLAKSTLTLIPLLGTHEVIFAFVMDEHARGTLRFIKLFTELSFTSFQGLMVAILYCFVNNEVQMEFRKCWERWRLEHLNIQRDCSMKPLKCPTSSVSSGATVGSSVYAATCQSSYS

Chain of endogenous glucagon receptor of primary rat hepatocytes (P30082 27-485): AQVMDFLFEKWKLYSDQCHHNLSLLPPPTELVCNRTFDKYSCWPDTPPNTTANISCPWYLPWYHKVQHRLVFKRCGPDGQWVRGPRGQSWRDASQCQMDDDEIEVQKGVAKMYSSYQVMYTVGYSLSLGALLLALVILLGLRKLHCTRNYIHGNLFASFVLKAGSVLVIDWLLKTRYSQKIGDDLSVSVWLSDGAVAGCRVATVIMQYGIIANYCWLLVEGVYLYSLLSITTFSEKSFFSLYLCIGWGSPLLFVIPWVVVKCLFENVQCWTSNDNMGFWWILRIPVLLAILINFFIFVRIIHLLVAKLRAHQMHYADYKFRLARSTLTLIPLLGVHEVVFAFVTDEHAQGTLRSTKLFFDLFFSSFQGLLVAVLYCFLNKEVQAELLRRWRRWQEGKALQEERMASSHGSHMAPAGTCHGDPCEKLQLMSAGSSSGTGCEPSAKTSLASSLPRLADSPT
Chain of human glucagon receptor (Glucagon-R) (P47871 26-477): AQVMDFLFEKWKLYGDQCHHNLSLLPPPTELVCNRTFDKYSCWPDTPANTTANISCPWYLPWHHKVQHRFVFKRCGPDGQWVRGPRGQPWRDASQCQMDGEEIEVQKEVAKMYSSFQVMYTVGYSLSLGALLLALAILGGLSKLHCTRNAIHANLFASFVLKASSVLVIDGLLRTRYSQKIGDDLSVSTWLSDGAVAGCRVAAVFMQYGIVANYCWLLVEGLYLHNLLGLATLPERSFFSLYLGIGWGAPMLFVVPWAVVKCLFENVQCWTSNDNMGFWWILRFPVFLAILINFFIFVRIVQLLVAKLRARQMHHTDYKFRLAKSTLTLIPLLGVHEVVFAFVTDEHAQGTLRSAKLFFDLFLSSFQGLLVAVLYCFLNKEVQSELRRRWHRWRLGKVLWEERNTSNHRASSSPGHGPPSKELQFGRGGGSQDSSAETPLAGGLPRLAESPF

EC50 hGCGR CHO-K1 [nM] (cAMP, AlphaScreen) [1]: 3.6 nM
EC50 hGLP-1R CHO-K1 [nM] (cAMP, AlphaScreen) [2]: 0.48 nM
EC50 [nM] (inhibition of glycogen synthesis rate in primary rat hepatocytes) [3]: 5.6 nM
EC50 [nM] (cAMP in murine insulinoma cells) [4]: 0.54 nM
B1: Compound 1: H-H-Aib-QGTFTSDYSKYLDERAAKDFIEWLE-K([17-Carboxy-heptadecanoyl]-isoGlu-GSGSGG)-A-NH2 (peptide)
peptide: HAQGTFTSDYSKYLDERAAKDFIEWLEKA
modifications: Aib (alpha-aminoisobutyric acid) at position 2; Lys 28 conjugated via its epsilon amino group to [17-Carboxy-heptadecanoyl]-isoGlu-GSGSGG; C-terminal amide (NH2); free N-terminus (R1 = H)

Source: patent US20200087372A1 (ZEALAND PHARMA A S, published 2020)
